Measured values reported in patent US20150361176A1 (GlaxoSmithKline, published 2015).
Values joined by “and” are separate entries in the source; they are usually repeats but may differ in a detail not shown here. Equal values may be shown once.

Assays:
[1] = biological target: T1, human TGF-βRII on cells (SBE-bla HEK 293T cells; A549 cells) (human, UniProt P37173 23-567); assay: cell-based or functional assay
[2] = biological target: T1, human TGF-βRII on cells (SBE-bla HEK …); assay: cell-based or functional assay; remark: listed apart in the source
[3] = biological target: T2, recombinant human TGF-β RII/Fc chimera protein (human, UniProt P37173 24-159); assay: SPR Biacore T200, receptor-Fc captured by anti-human IgG, dAb as analyte, 1:1 model
T2 construct: range 24-159; Made in HEK-F cells; Biotinylated where it was put on SA chips, otherwise captured by anti-human IgG; also called human TGFbRII/Fc; hRII-Fc; not shown: Fc region of human IgG1
Experimental: (§1) Anti-human IgG was immobilised on a Biacore CM4 chip by primary amine coupling according to the manufacturer's instructions. Human TGF-β RII/Fc, cynomolgus TGF-β RII/Fc or human Fc fragment were captured on this surface. Domain antibodies were passed over the two captured receptors at 3 concentrations of 100, 10 and 1 nM (DOM23h-439 dAbs) or 100, 25 and 6.25 nM (DOM23h-271 dAbs). Only the 100 nM concentration of each dab was passed over human Fc fragment to confirm specificity of binding to the extracellular TGF-β RII domain. An injection of buffer over the captured antigen surface was used for double referencing. […] All runs were carried out at 25° C. using HBS-EP buffer as running buffer. Data were generated using the BIACORE™ T200 and fitted to the 1:1 binding model inherent to the software. […] The DOM23h-271 dAbs and the DOM23h-439 lineages were run in separate experiments.

cynomolgus TGF-β RII/Fc = biological target: T3, cynomolgus TGF-β RII/Fc (cynomolgus); assay: as above
T3 construct: extracellular domain; also called Cyno TGFBRII; Cyno TGFbRII
Experimental: as §1

[4] = biological target: T2, recombinant human TGF-β RII/Fc chimera …; assay: SPR Biacore T100, human TGFbRII-FC, 1:1 model
Experimental: Triplet or doped libraries in separate CDR1, CDR2 and CDR3 pools were subjected to rounds of phage selection as described above against either biotinylated human TGF-β RII/Fc antigen over 4 rounds in concentrations of 10 nM, 1 nM, 100 pM and 20 pM respectively, or two rounds of selection using 20 pM followed by 2 pM antigen. Inserts from phage selections were cloned into the pDOM10 expression vector and supernatants with off rates improved over parent were selected for further study. Domain antibodies were expressed and purified their affinity and bioactivity against human TGF-β RII/Fc antigen tested on the BIACORE™ T100 and in the Cell sensor assay described above (data not shown).
BIACORE™ analysis was carried out using a capture surface on a CM4 chip. Anti-human IgG was used as the capturing agent and coupled to a CM4 biosensor chip by primary amine coupling. The Antigen molecule fused to the human Fc was captured on this immobilised surface to a level from 250 to 300 resonance units and defined concentrations of Domain antibodies diluted in running buffer were passed over this captured surface. An injection of buffer over the captured antigen surface was used for double referencing. […] All runs were carried out at 25° C. using HBS-EP buffer as running buffer. Data were generated using the BIACORE™ T100 and fitted to the 1:1 binding model inherent to the software.

T2 sequence (P37173 24-159 limits assumed, stated change not applied): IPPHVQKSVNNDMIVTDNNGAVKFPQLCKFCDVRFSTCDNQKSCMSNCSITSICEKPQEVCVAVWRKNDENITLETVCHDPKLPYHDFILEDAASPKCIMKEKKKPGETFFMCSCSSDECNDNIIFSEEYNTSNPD
T1 sequence (P37173 23-567): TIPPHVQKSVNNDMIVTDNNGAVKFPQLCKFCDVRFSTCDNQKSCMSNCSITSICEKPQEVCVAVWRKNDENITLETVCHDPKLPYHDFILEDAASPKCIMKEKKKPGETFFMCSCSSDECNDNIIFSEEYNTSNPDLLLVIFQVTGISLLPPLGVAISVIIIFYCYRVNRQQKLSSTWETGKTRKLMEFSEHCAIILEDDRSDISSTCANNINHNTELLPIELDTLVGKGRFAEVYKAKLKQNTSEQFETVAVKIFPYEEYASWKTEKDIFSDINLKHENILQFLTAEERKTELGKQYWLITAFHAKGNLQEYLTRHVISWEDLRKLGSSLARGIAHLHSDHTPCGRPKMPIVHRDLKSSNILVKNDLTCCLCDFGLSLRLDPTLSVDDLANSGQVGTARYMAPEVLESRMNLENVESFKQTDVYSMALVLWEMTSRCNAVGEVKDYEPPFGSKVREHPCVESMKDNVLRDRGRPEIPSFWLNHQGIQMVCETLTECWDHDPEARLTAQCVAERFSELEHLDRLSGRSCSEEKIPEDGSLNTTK

B1: DOM23h-842 (VHH, not shown: small tags and cut ends)
VHH: EVQLLESGGGLVQPGGSLRLSCAASGFTFDDSEMAWARQAPGKGLEWVSLIRRNGNATYYADSVKGRFTISRDNSKNTLYLQMNSLRAEDTAVYYCAKVTKDRSVLFDYWGQGTLVTVSS
IC50 nM, Mean (SBE-bla HEK 293T cell sensor assay, h2) [1]: 2040 nM

B2: DOM23h-803 (VHH, not shown: small tags and cut ends)
VHH: EVQLLESGGGLVQPGGSLRLSCAASGFTFSAGRMWWVRQAPGKGLEWVSAINRDGTRTYYADSVKGRFTISRDNSKNTLYLQMNSLRAEDTAVYYCAKHDDGHGNFDYWGQGTLVTVSS
IC50 nM, Mean (SBE-bla HEK 293T cell sensor assay, h2) [1]: > 11600 nM

B3: DOM23h-854 (VHH, not shown: small tags and cut ends)
VHH: EVQLLESGGGLVQPGGSLRLSCAASGFTFAQDRMWWVRQAPGKGLEWVSAISGSGGSTYYADSVKGRFTISRDNSKNTLYLQMNSLRAEDTAVYYCAKQDLHGTSSLFDYWGQGTLVTVSS
IC50 nM, Mean (SBE-bla HEK 293T cell sensor assay, h2) [1]: > 9550 nM

B4: DOM23h-815 (VHH, not shown: small tags and cut ends)
VHH: EVQLLESGGGLVQPGGSLRLSCAASGFTFAEDRMWWVRQAPGKGLEWVSAIDPQGQHTYYADSVKGRFTISRDNSKNTLYLQMNSLRAEDTAVYYCAKQSTGSATSDYWGQGTLVTVSS
IC50 nM, Mean (SBE-bla HEK 293T cell sensor assay, h2) [1]: 7120 nM

B5: DOM23h-813 (VHH, not shown: small tags and cut ends)
VHH: EVQLLESGGGLVQPGGSLRLSCAASGSTFTDDRMWWVRQAPGKGLEWVSAIQPDGHTTYYADSVKGRFTISRDNSKNTLYLQMNSLRAEDTAVYYCAEQDVKGSSSFDYWGQGTLVTVSS
IC50 nM, Mean (SBE-bla HEK 293T cell sensor assay, h2) [1]: > 9330 nM

B6: DOM23h-830 (VHH, not shown: small tags and cut ends)
VHH: EVQLLESGGGLVQPGGFLRLSCAASGFTFEGYRMWWVRQAPGKGLEWVSAIDSLGDRTYYADSVKGRFTISRDNSKNTLYLQMNSLRAEDTAVYYCAKQGLTHQSPSTFDYWGQGTLVTVSS
IC50 nM, Mean (SBE-bla HEK 293T cell sensor assay, h2) [1]: 6300 nM

B7: DOM23h-866 (VHH, not shown: small tags and cut ends)
VHH: EVQLLESGGGLVQPGGSLRLSCAASGFTFSNYWMRWARQAPGKGLEWVSYITPKGDHTYYADSVKGRFTISRDNSKNTLYLQMNSLRAEDTAVYYCAESLHNERVKHFDYWGQGTLVTVSS
IC50 nM, Mean (SBE-bla HEK 293T cell sensor assay, h2) [1]: > 1760 nM

B8: DOM23h-439-25 (VHH)
VHH: EVQLLESGGGLVQPGGSLRLSCAASGFTFGTEQMWWVRQAPGKGLEFVSRIDSPGGRTYYADSVKGRFTISRDNSKNTLYLQMNSLRAEDTAVYYCAKRRPTGVSGTFYDYWGQGTLVTVSS
notes: expressed from pC10
IC50 nM, Mean (SBE-bla HEK 293T cell sensor assay) [2]: 4 nM | Kd [3]: 0.0817 nM | koff [3]: 0.000634 s⁻¹ | kon [3]: 7.77e+06 M⁻¹ s⁻¹ | Kd (cynomolgus TGF-β RII/Fc): 0.304 nM | koff (cynomolgus TGF-β RII/Fc): 0.00273 s⁻¹ | kon (cynomolgus TGF-β RII/Fc): 8.99e+06 M⁻¹ s⁻¹

B9: DOM23h-439-35 (VHH)
VHH: EVQLLESGGGLVQPGGSLRLSCAASGFTFGTDQMWWVRQAPGKGLEFVSRIDSPGGRTYYANSVKGRFTISRDNSKNTLYLQMNSLRAEDTAVYYCAKRQPAGVSGKYVDYWGQGTLVTVSS
notes: expressed from pC10
IC50 nM, Mean (SBE-bla HEK 293T cell sensor assay) [2]: 0.5 nM | Kd [3]: 0.00983 nM | koff [3]: 0.000222 s⁻¹ | kon [3]: 2.26e+07 M⁻¹ s⁻¹ | Kd (cynomolgus TGF-β RII/Fc): 0.0291 nM | koff (cynomolgus TGF-β RII/Fc): 0.000675 s⁻¹ | kon (cynomolgus TGF-β RII/Fc): 2.32e+07 M⁻¹ s⁻¹

B10: DOM23h-802 (VHH, not shown: small tags and cut ends)
VHH: EVQLLESGGGLVQPGGSLRLSCAASGFTFSEGTMWWVRQAPGKGLEWVSAILAAGSNTYYADSVKGRFTISRDNSKNTLYLQMNSLRAEDTAVYYCAKKRQERDGFDYWGQGTLVTVSS
IC50 nM, Mean (SBE-bla HEK 293T cell sensor assay, h2) [1]: > 11100 nM

B11: DOM23h-840 (VHH, not shown: small tags and cut ends)
VHH: EVQLLESGGGLVQPGGSLRLSCAASGFTFGDGRMWWVRQAPGKGLEWVSAIEGAGSDTYYADSVKGRFTISRDNSKNTLYLQMNSLRAEDTAVYYCAKQASRNSPFDYWGQGTLVTVSS
IC50 nM, Mean (SBE-bla HEK 293T cell sensor assay, h2) [1]: 2920 nM

B12: DOM23h-271-101 (VHH)
VHH: EVQLLESGGGLVQPGGSLRLSCAASGFTFTEYRMWWVRQAPGKGLEWVSAIEPIGNRTYYADSVKGRFTISRDNSKNTLYLQMNSLRAEDTAVYYCAKQIPGRKWTANGRKDYWGQGTLVTVSS
notes: human VH dAb from phage display maturation of DOM23h-271-7; not shown: C-terminal FLAG tag from vector pDOM10
Kd [4]: 5.4 nM | koff [4]: 0.0201 s⁻¹ | kon [4]: 3.73e+06 M⁻¹ s⁻¹

B13: DOM23h-271-106 (VHH)
VHH: EVQLLESGGGLVQPGGSLRLSCAASGFTFTEYRMWWVRQAPGKGLEWVSAIEPIGNRTYYADSVKGRFTISRDNSKNTLYLQMNSLRAEDTAVYYCAKQFPGRKWTANSRSDYWGQGTLVTVSS
notes: human VH dAb from phage display maturation of DOM23h-271-7; also called 271-106a; 271-106b; not shown: C-terminal FLAG tag from vector pDOM10
Kd [4]: 3.16 nM and 2.88 nM | koff [4]: 0.0233 s⁻¹ and 0.0195 s⁻¹ | kon [4]: 7.39e+06 M⁻¹ s⁻¹ and 6.77e+06 M⁻¹ s⁻¹

B14: DOM23h-271-114 (VHH)
VHH: EVQLLESGGGLVQPGGSLRLSCAASGFTFTEYRMWWVRQAPGKGLEWVSAIEPIGNRTYYADSVKGRFTISRDNSKNTLYLQMNSLRAEDTAVYYCAKQIPGRKGTANSRFDYWGQGTLVTVSS
notes: as for B12
Kd [4]: 6.8 nM | koff [4]: 0.0708 s⁻¹ | kon [4]: 1.04e+07 M⁻¹ s⁻¹

B15: DOM23h-271-102 (VHH)
VHH: EVQLLESGGGLVQPGGSLRLSCAASGSTFTEYRMWWVRQAPGKGLEWVSAIEPIGHRTYYADSVKGRFTISRDNSKNTLYLQMNSLRAEDTAVYYCAKQIPGRKWTANSRFDYWGQGTLVTVSS
notes: as for B12
Kd [4]: 1.64 nM | koff [4]: 0.0153 s⁻¹ | kon [4]: 9.35e+06 M⁻¹ s⁻¹

B16: DOM23h-271-105 (VHH)
VHH: EVQLLESGGGLVQPGGSLRLSCAASGFTFTEYRMWWVRQAPGKGLEWVSAIEPIGNRTYYADSVKGRFTISRDNSKNTLYLQMNSLRAEDTAVYYCAKQIPGQRWTGNSRFDYWGQGTLVTVSS
notes: as for B12
Kd [4]: 2.27 nM and 2.6 nM | koff [4]: 0.00747 s⁻¹ and 0.00798 s⁻¹ | kon [4]: 3.29e+06 M⁻¹ s⁻¹ and 3.07e+06 M⁻¹ s⁻¹

B17: DOM23h-850 (VHH, not shown: small tags and cut ends)
VHH: EVQLLESGGGLVQPGGSLRLSCAASGFTFDAARMWWARQAPGKGLEWVSAIADIGNTTYYADSVKGRFTISRDNSKNTLYLQMNSLRAEDTAVYYCAKQSGSEDHFDYWGQGTLVTVSS
IC50 nM, Mean (SBE-bla HEK 293T cell sensor assay, h2) [1]: 5350 nM

B18: DOM23h-874 (VHH, not shown: small tags and cut ends)
VHH: EVQLLESGGGLVQPGGSLRLSCAASGFTFTSYRMWWVRQAPGKGLEWVSVIDSTGSATYYADSVKGRFTISRDNSKNTLYLQMNSLRAEDTAVYYCAKQQAGSAMGEFDYWGQGTLVTVSS
IC50 nM, Mean (SBE-bla HEK 293T cell sensor assay, h2) [1]: > 925 nM

B19: DOM23h-828 (VHH, not shown: small tags and cut ends)
VHH: EVQLLESGGGLVQPGGSLRLSCAASGFTFMSYRMWWVRQAPGKGLEWVSAISPSGSDTYYADSVKGRFTISRDNSKNTLYLQMNSLRAEDTAVYYCAKQVVEYSRTHKGVFDYWGQGTLVTVSS
IC50 nM, Mean (SBE-bla HEK 293T cell sensor assay, h2) [1]: 9900 nM

B20: DOM23h-865 (VHH, not shown: small tags and cut ends)
VHH: EVQLLESGGGLVQPGGSLRLSCAASGFTFRSYEMTWVRQAPGKGLEWVSKIDPSGRFTYYADSVKGRFTISRDNSKNTLYLQMNSLRAEDTAVYYCAKGRTDLQLFDYWGQGTLVTVSS
IC50 nM, Mean (SBE-bla HEK 293T cell sensor assay, h2) [1]: 5560 nM

B21: DOM23h-883 (VHH, not shown: small tags and cut ends)
VHH: EVQLLESGGGLVQPGGSLRLSCAASGFTFVNYRMWWVRQAPGKGLEWVSAISGSGDKTYYADSVKGRFTISRDNSKNTLYLQMNSLRAEDTAVYYCAKHGLSFDYWGQGTLVTVSS
IC50 nM, Mean (SBE-bla HEK 293T cell sensor assay, h2) [1]: 10100 nM

B22: DOM23h-903 (VHH, not shown: small tags and cut ends)
VHH: EVQLLESGGGLVQPGGSLRLSCAASGFTFNDMRMWWVRQAPGKGLEWVSVINADGNRTYYADSVKGRFTISRDNSKNTLYLQMNSLRAEDTAVYYCAKDGLPFDYWGQGTLVTVSS
IC50 nM, Mean (SBE-bla HEK 293T cell sensor assay, h2) [1]: 1050 nM

B23: DOM23h-831 (VHH, not shown: small tags and cut ends)
VHH: EVQLLESGGGLVQPGGSLRLSCAASGFTFEAYKMTWVRQAPGKGLEWVSYITPSGGQTYYADSVKGRFTISRDNSKNTLYLQMNSLRAEDTAVYYCAKYGSSFDYWGQGTLVTVSS
IC50 nM, Mean (SBE-bla HEK 293T cell sensor assay, h2) [1]: > 3130 nM
